{"source": "paper PMC4117788", "about": "“Structural dynamics of the two-component response regulator RstA in recognition of promoter DNA element” (Nucleic Acids Research, 2014)", "key": {"[1]": {"target": "Klebsiella pneumoniae RstA N-terminal receiver domain (Klebsiella pneumoniae) (UniProt A6T8N1)", "assay": "NMR line-widths; inactive kpRstA RD (without BeF3-) at high concentrations; data not shown"}, "kpRstA DBD [2]": {"target": "T1, kpRstA DBD (Klebsiella pneumoniae, UniProt A6T8N1 130-236)", "T1 sequence": "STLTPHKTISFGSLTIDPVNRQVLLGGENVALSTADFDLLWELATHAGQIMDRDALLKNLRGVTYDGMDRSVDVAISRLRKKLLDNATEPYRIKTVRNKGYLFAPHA", "assay": "ITC; sequential model, KD1 (first site); ITC 25 C: 20 mM Tris pH 7.5, 100 mM NaCl (DBD); plus 7 mM MgCl2 with or without 5.3 mM BeSO4 and 35 mM NaF (full-length). NMR of complex: 20 mM Na phosphate pH", "details": "protein: recombinant; tags: N-terminal M-6H-AMG; chain copies: 2"}, "kpRstA full-length": {"target": "T2, kpRstA full-length (Klebsiella pneumoniae, UniProt A6T8N1 1-239)", "T2 sequence": "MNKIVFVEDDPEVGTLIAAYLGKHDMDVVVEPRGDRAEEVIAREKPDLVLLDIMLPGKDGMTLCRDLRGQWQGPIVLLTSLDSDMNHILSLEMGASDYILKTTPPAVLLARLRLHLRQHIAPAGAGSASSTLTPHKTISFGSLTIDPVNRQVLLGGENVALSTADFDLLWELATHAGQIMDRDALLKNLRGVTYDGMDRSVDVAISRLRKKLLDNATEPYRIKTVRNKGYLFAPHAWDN", "assay": "ITC; without BeF3-, 7 mM MgCl2; sequential model, KD1; ITC 25 C: 20 mM Tris pH 7.5, 100 mM NaCl (DBD); plus 7 mM MgCl2 with or without 5.3 mM BeSO4 and 35 mM NaF (full-length). NMR of complex: 20 mM Na phosphate pH", "details": "protein: recombinant; tags: His-tag removed by thrombin; N-terminal GSAMA remains; chain copies: 2"}, "kpRstA DBD [3]": {"target": "T1, kpRstA DBD", "assay": "ITC; one-site model, N = 1.05 (text gives error 0.54); ITC 25 C: 20 mM Tris pH 7.5, 100 mM NaCl (DBD); plus 7 mM MgCl2 with or without 5.3 mM BeSO4 and 35 mM NaF (full-length). NMR of complex: 20 mM Na phosphate pH", "details": "protein: recombinant; tags: N-terminal M-6H-AMG; chain copies: 2"}, "kpRstA DBD R207A": {"target": "kpRstA DBD R207A (Klebsiella pneumoniae, UniProt A6T8N1 130-236, R207A)", "assay": "ITC; binding completely abolished; DNA-16a per Figure 1E legend (Table 1 says DNA-22); ITC 25 C: 20 mM Tris pH 7.5, 100 mM NaCl (DBD); plus 7 mM MgCl2 with or without 5.3 mM BeSO4 and 35 mM NaF (full-length). NMR of complex: 20 mM Na phosphate pH", "details": "protein: recombinant; tags: N-terminal M-6H-AMG; chain copies: 2"}, "[4]": {"target": "the molecule itself", "assay": "SEC; full-length kpRstA in the presence of BeF3-; data not shown"}}}
{"molecule": "Klebsiella pneumoniae RstA N-terminal receiver domain (from UniProt A6T8N1 1-119) (domain or fragment)", "values": [{"measurement": "stoichiometry N", "setting": "[1]", "value": 2}]}
{"molecule": "DNA-22 (dsDNA) DNA 1: GTTGTACATTCCGTTACTCCCT DNA 2: AGGGAGTAACGGAATGTACAAC", "values": [{"measurement": "Kd", "setting": "kpRstA DBD [2]", "value": "10.3 ± 1.14", "unit": "µM"}, {"measurement": "Kd", "setting": "kpRstA full-length", "value": "45.5 ± 8.41", "unit": "µM"}]}
{"molecule": "DNA-16a (dsDNA) DNA 1: ACGTTGTACATTCCGT DNA 2: ACGGAATGTACAACGT", "values": [{"measurement": "Kd", "setting": "kpRstA DBD [3]", "value": "8.17 ± 0.53", "unit": "µM"}, {"measurement": "binding result", "setting": "kpRstA DBD R207A", "value": "no binding"}]}
{"molecule": "full-length Klebsiella pneumoniae RstA (natural protein, RstA response regulator of Klebsiella pneumoniae, full length (RD residues 1-119, DBD residues 131-236); Cloned in a modified pET32a(+) lacking the enterokinase site; also called kpRstA; full-length kpRstA; source: E. coli BL21(DE3), purified (Ni-NTA, Superdex-75 SEC, thrombin digestion); not shown: His-tag, N-terminal, cleaved) GSAMAMNKIVFVEDDPEVGTLIAAYLGKHDMDVVVEPRGDRAEEVIAREKPDLVLLDIMLPGKDGMTLCRDLRGQWQGPIVLLTSLDSDMNHILSLEMGASDYILKTTPPAVLLARLRLHLRQHIAPAGAGSASSTLTPHKTISFGSLTIDPVNRQVLLGGENVALSTADFDLLWELATHAGQIMDRDALLKNLRGVTYDGMDRSVDVAISRLRKKLLDNATEPYRIKTVRNKGYLFAPHAWDN", "values": [{"measurement": "stoichiometry N", "setting": "[4]", "value": 2}]}
